Test results: patent US10568949B2, “Method of eliciting an anti-tumor immune response with controlled delivery of TLR agonists in porous polymerlc devices” (President and Fellows of Harvard College, priority 2008, dated 2020)

Assays:
B16-F10 melanoma cells = assay: Example 7: therapeutic vaccination of established B16-F10 melanoma
Experimental: To assess PLG vaccine efficacy in the therapeutic setting, C57/BL6J mice were challenged with a subcutaneous injection of 5×10^5 B16-F10 melanoma cells (ATCC, Manassas, N.J.) in the back of the neck. At day 9 after tumor challenge PLG vaccines loaded with 3000 ng GM-CSF in combination with 100 μg of CpG-ODN, MPLA or P(I:C), and tumor lysates were implanted subcutaneously into the lower left flank of C57BL/6J mice. A subset of mice were vaccinated again 10 days after the initial vaccination (Days 19 and 23).
Mice challenged with 5×10^5B16-F10 melanoma cells were subsequently vaccinated at days 9 and 19, after tumors were established.

B16-F10 cells = assay: Example 7: vaccination of mice lacking CD8(+) DCs; assay type: in vivo; settings: vaccinated Batf3−/− mice
Experimental: C57BL/6 mice and Batf3−/− knockout mice (6-8-week-old female; Jackson Laboratories) were used in the studies described in Example 7.
Since PLG vaccines incorporating TLR agonists were capable of generating CD8(+) DC populations in situ, which correlated to potent anti-tumor CTL responses and survival (FIGS. 17A-D and 19A-F), studies were carried out to examine whether these cells were required to confer anti-tumor immunity in vivo. […] Wild-type and Batf3−/− mice were vaccinated with CpG-ODN loaded PLG vaccines and challenged with B16-F10 cells 14 days later. Vaccination of wildtype mice promoted complete protection against tumor growth and long-term survival (100% survival), as expected, but vaccinated Batf3−/− were not protected and tumor growth rates were similar to untreated, wild-type animals (FIG. 20A).

[1] = In vivo GM-CSF concentration in tissue around PLG implant; parameters: species or system C57BL/6J mice; settings: for GM-CSF concentration in surrounding tissue: peak
[2] = test system: TRP-2-specific cytotoxic T lymphocytes; assay: Example 8: TRP-2-specific cytotoxic T lymphocytes in spleens (Day 10); parameters: species or system C57BL/6J mice; settings: mouse, in vivo
[3] = test system: bone marrow derived dendritic cells; assay: Example 8: transwell chemotaxis and chemokinesis of bone marrow derived DCs; assay type: cell-based, C57BL/6 mice; settings: 12 h
Experimental: Primary bone-marrow-derived dendritic cells (BMDCs) were flushed from the femurs of C57BL/6 mice and cultured in 100-mm bacteriological petri dishes (Falcon number 1029/Becton Dickinson). Cell culture medium RPMI-1640 (R10) (Sigma) was supplemented with 1% Penicillin-Streptomycin (Invitrogen), 2 mM 1-Glutamine (Invitrogen), 50 μM 2-mercaptoethanol (Sigma) and 10% heat-inactivated fetal bovine serum (FBS, Invitrogen). At day 0, bone marrow leukocytes were seeded at 2×10^6 cells per 100-mm dish in 10 ml R10 medium containing 20 ng/nil granulocyte-macrophage colony-stimulating factor (GM-CSF) (Peprotech). At day 3, another 10 ml R10 medium containing 20 ng/mL GM-CSF was added. to the plates. At days 6 and 8, half of the culture supernatant was collected and centrifuged, the cell pellet was resuspended in 10 ml fresh R10 containing 20 ng/mL GM-CSF, and placed back into the original plate. The non-adherent cell population in the culture supernatant was used between days 8 and 12 for all the experiments.
Transwell migration studies were performed by plating bone marrow derived dendritic cells in the top well of 6.5 mm transwell dishes (Costar, Cambridge, Mass.) with a pore size of 5 μm. The chemotactic effects of GM-CSF, FL (Flt3), and CCL20 on the migration of BMDCs was assessed by placing 500 ng/ml of recombinant murine GM-CSF, FL or CCL20 (Peprotech, Rocky Hill, N.J.) in the bottom wells and 3×10^5 DCs in the top wells. For chemokinesis studies, the concentration of cytokine in each compartment was equal at 500 ng/ml and 3×10^5 DCs were added to the top wells. The number of cells that migrated from the top well to the bottom well through the porous membrane was counted at the end of 12 h to quantify migration. Cells that had migrated to the bottom well were collected by treatment with 0.25% trypsin-0.03% ethylenediaminetetraacetic acid (EDTA, Invitrogen) and counted with a Z2 coulter counter (Beckman Coulter, Inc).

IL-12p70 and IFN-γ = settings: tumor lysate and CpG-ODN
Experimental: To determine the in vivo IL-12p70 and IFN-γ concentration at the matrix implant site, adjacent tissue was excised and digested with tissue protein extraction reagent at Day 10 after implantation (Pierce). After centrifugation, the concentrations of IL-12 and IFN-γ, in the supernatant were then analyzed with ELISA (R&D systems), according to the manufacturer's instructions. To determine the generation of TRP-2-specific cytotoxic T lymphocytes, single cell suspensions were prepared at Day 10 from the spleens of mice immunized with PLG vaccines. These cells were initially stained with PE-H-2Kb/TRP2 pentamers (Sigma Aldrich), and subsequently stained with FITC-anti-CD8 and PE-CY7 CD3 mAb (mAb (BD Pharmingen, San Diego) before being analyzed using flow cytometry.

JAWSII DCs = assay: In vitro DC migration toward CCL19 (transwell); assay type: cell-based
Experimental: Migration assays were performed with 6.5 mm transwell dishes (Costar, Cambridge, Mass.) with a pore size of 5 μm. To test whether CpG-ODN stimulation may affect DC chemotaxis towards CCL19 (Peprotech, Rocky Hill, N.J.) in the presence of GM-CSF, 5×10^5 DCs stimulated with either 5 μg/ml of CpG-ODN or PEI-CPG-ODN (Charge Ratio of 7), and 0, 50 and 500 ng/ml GM-CSF were placed in the top wells and 300 ng/ml of CCL19 was placed in the bottom well. After 12 hours the cells that migrated into the bottom wells of the chamber were harvested and counted using a coulter counter. Dispersement of DCs from PEI-CpG-ODN loaded PLG matrices toward CCL19 was assessed by incorporating 5, 50 and 500 μg of condensates into PLG scaffolds (13 mm diameter, 2 mm thick that were quartered) seeded with 1×10^6 DCs and fixed onto transwells using bovine collagen (BD Biosciences, San Jose, Calif.). To test the effects of CpG stimulation in the presence of GM-CSF, 500 ng/ml of GM-CSF was supplemented into the media of the top wells with scaffolds containing 25 μg of PEI-CpG-ODN. At various timepoints, the cells that migrated into the bottom wells of the chamber were harvested and counted using a coulter counter.

Molecule: CpG-ODN 1826
- complete tumor regression, fraction of vaccinated animals (B16-F10 melanoma cells; mouse, in vivo): over a third
- size of tumors that completely regressed / were eradicated (B16-F10 melanoma cells; mouse, in vivo): 35 mm^2
- long term survival of mice (B16-F10 melanoma cells; vaccinated at days 9 and 19): 33%
- decrease in TRP2 specific cytotoxic T cells at vaccine site vs wild-type (B16-F10 cells): 3 fold
- protection against tumor growth (B16-F10 cells): not protected

B1: granulocyte macrophage colony stimulating factor (protein, UniProt P01587 18-141, looked up)
Granulocyte-macrophage …: APTRSPITVTRPWKHVEAIKEALNLLDDMPVTLNEEVEVVSNEFSFKKLTCVQTRLKIFEQGLRGNFTKLKGALNMTASYYQTYCPPTPETDCETQVTTYADFIDSLKTFLTDIPFECKKPGQK
notes: cytokine encapsulated in and released from PLG matrices to recruit DCs
- day of secondary peak for GM-CSF in vivo ([1]; 3000 ng dose): 5 days
- day of secondary peak for GM-CSF in vivo ([1]; 7000 ng dose): 7 days
- GM-CSF concentration difference over no incorporated GM-CSF ([1]; 12 hours post-implantation): > 30 fold
- period elevated GM-CSF levels were maintained ([1]; mouse, in vivo): approximately 10 days
- GM-CSF concentration in surrounding tissue ([1]; 12 hours post-implantation, 1-3 mm from implant site): 100 µg/mL
- GM-CSF concentration in surrounding tissue ([1]; 12 hours post-implantation, 3-5 mm from implant site): 30 µg/mL
- Trp2 specific CTLs in spleens, higher than control vaccines [2]: ~4 fold
- DC chemotaxis, migration higher than control condition ([3]; 500 ng/ml in bottom wells): approximately 50%
- DC chemokinesis, increase in number of migrated cells ([3]; homogenous cytokine 500 ng/ml): 50%
- increase in local concentration of IFN-γ over control scaffolds (IL-12p70 and IFN-γ): ~6 fold
- increase in local concentration of IL-12 over control scaffolds (IL-12p70 and IFN-γ): approximately 3 fold
- concentration that inhibited DC migration toward CCL19 (JAWSII DCs): > 100 ng/mL
